Laboratory results: article PMC8331134, “Increased expression of ANAC017 primes for accelerated senescence”

T1: ANAC017 (lacking C-terminal transmembrane domain) (Arabidopsis thaliana, UniProt Q9XIC5 1-525)
T1 sequence: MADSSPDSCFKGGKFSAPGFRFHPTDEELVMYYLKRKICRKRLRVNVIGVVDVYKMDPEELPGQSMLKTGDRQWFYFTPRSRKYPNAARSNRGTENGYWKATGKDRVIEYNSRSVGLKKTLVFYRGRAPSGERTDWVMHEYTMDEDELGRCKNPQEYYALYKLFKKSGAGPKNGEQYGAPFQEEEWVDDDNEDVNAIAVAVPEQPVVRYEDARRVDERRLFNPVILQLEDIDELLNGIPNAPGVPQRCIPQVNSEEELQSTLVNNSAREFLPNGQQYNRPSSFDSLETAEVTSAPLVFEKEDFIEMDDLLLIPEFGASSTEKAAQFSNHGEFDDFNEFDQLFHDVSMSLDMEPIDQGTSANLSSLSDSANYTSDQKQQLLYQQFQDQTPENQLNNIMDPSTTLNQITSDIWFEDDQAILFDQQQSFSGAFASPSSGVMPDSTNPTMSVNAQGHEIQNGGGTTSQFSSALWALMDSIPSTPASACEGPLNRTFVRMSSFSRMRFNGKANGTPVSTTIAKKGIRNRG

B1: ANAC016 intron 1 MDM2 probe (dsDNA)
DNA 1: GATTTGTTGAGTATATGACAAGGAAACGTCTTTATTCACT
DNA 2: AGTGAATAAAGACGTTTCCTTGTCATATACTCAACAAATC
B2: ANAC016 intron 1 MDM1 probe (dsDNA)
DNA 1: GATGTAGTTGAGTATATGACAAGGAAAAGTTTTGGTTGTT
DNA 2: AACAACCAAAACTTTTCCTTGTCATATACTCAACTACATC

Legend:
[1] = biological target: T1, ANAC017 (lacking C-terminal …); assay: EMSA; clear shift, less than MDM1; Binding reactions as in Ng et al. 2013 (buffer, pH, temperature not given); 12% acrylamide 0.5x TBE gels; settings: protein: recombinant; tags: GST (pDEST15); chain copies: 2; label: 32P 5' end (T4 PNK)
[2] = biological target: T1, ANAC017 (lacking C-terminal …); assay: EMSA; stronger than MDM2; Binding reactions as in Ng et al. 2013 (buffer, pH, temperature not given); 12% acrylamide 0.5x TBE gels; settings: protein: recombinant; tags: GST (pDEST15); chain copies: 2; label: 32P 5' end (T4 PNK)

Binder	binding result [1]	binding result [2]
B1	binds	–
B2	–	binds
